Test [1] addresses T1, human IL-4Rα on cells (human PBMC B cells and CD4+ T cells, Daudi cells, HEK-Blue IL-4/IL-13 cells, myeloid … (human, UniProt P24394 26-825)).
T1 sequence: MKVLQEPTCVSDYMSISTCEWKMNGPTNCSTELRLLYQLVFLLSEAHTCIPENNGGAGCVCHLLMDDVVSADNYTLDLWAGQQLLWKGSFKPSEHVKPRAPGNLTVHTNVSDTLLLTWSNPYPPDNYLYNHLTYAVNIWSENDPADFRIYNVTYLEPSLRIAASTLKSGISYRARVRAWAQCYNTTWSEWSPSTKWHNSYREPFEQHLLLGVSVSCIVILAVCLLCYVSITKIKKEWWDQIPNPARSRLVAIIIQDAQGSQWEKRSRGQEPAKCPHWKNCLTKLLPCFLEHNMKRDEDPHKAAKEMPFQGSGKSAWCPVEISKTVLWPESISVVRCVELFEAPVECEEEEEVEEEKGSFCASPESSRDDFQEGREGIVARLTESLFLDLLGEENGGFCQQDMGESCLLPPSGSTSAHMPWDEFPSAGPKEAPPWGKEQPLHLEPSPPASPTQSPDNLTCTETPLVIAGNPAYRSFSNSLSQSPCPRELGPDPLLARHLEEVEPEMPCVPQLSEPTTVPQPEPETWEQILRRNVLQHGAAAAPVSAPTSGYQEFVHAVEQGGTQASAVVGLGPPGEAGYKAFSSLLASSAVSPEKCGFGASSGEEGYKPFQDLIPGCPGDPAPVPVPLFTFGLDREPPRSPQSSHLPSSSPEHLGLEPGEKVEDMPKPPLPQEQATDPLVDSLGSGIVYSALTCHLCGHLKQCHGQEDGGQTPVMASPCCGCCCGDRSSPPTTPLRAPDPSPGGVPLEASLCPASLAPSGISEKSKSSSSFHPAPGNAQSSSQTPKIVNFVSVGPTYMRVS
As to the kind of experiment: cell-based or functional assay.

Test [2] deals with T2, hexahistidine tagged human IL-4Rα ECD containing a C182L mutation (human, UniProt P24394 26-232).
T2 construct: Stated for the Ab9 Fab crystal; also called IL-4Rα ECD (crystallisation construct); not shown: hexahistidine tag
As to the kind of experiment: X-ray co-crystal structure.

In test [3] the target is T3, hexahistidine-tagged cynomolgus monkey IL-4Rα extracellular domain (cynomolgus monkey, UniProt P24394 26-231 (human entry)).
T3 construct: also called cynomolgus monkey IL-4Rα ECD; not shown: hexahistidine tag
T3 chain: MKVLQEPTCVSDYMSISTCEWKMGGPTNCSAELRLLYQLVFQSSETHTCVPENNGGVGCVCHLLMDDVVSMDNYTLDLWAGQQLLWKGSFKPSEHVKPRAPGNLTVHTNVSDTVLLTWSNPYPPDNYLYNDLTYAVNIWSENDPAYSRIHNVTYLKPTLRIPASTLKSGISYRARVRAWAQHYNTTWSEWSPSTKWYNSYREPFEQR
The experiment in a line: competition MSD ELISA (solution equilibrium, 37 °C), apparent KD, single experiment. The procedure: (§1) Example 3a. […] A 96-well multi-array plate (Meso Scale Diagnostics, Cat. #L15XA-3) was coated at 4° C. overnight with 0.5 μg/mL hexahistidine-tagged human or cynomolgus monkey IL-4Rα ECD in phosphate buffered saline (PBS). Following coating, plates were washed 10 times with 200 μL PBST (PBS with 0.05% Tween® 20) and blocked with 300 μL/well of PBS casein blocking buffer (Pierce, Cat. #37528) at 37° C. for 1 hour. Plates were then washed 10 times as above, and 50 μL of the preincubated antibody:IL-4Rα dilution series was transferred to the wells and incubated at 37° C. with 300 rpm shaking for […]. Plates were washed 10 times with PBST, 50 μL of 1 μg/mL anti-human antibody sulfo-tag 20 (Meso Scale Diagnostics, Cat. #R32AJ-1) was added to the plates for the assay of Table 7a, and anti-Human NHP Kappa Light chain SULFO-TAG 20 (Meso Scale Diagnostics, Cat #D20TF-6) was added to the plates for the assay of Table 7b, and plates were incubated at 37° C. with 300 rpm shaking for 30 minutes. Plates were washed 10 times with PBST, 150 μL/well of 1× Read Buffer T was added to the wells and analyzed on a SECTOR® Imager 6000 (Meso Scale Diagnostics) 15 min after buffer addition. The apparent KD is determined by fitting a sigmoidal curve to the electrochemiluminescence (ECL) response vs. log (soluble IL-4Rα concentration) using GraphPad Prism 9. Data is graphed with normalized ECL values.

For test [4], the target named is T4, hexahistidine-tagged human IL-4Rα extracellular domain (human, UniProt P24394 26-232).
T4 construct: In the MSD assay the plate coat is the His-tagged ECD; also called human IL-4Rα ECD; Wild type receptor; not shown: hexahistidine tag
T4 sequence: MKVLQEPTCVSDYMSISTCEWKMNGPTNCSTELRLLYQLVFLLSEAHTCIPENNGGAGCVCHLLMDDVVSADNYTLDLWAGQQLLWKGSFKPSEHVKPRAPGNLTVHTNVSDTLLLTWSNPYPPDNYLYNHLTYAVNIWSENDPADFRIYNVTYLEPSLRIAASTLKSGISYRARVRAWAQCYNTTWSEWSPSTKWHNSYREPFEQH
The description is as above. The procedure:
as §1

The target of test [5] is T1, human IL-4Rα on cells (human PBMC B …). The experiment in a line: flow cytometry on human PBMCs, B cells, Alexa Fluor 647 labelled antibody. As for the experimental part:
Example 3b. Binding to B cells and T cells: Binding of the exemplified anti-human IL-4Rα antibodies to B cells and T cells was tested in a Fluorescence Activated Cell Sorting (FACS) assay. […] Freshly isolated cells PBMCs were resuspended at 2×10⁶ cells/mL and allowed to rest for 15 minutes at room temperature, then plated at 100 μL/well into a round bottom 96-well plate (COSTAR®) and washed with FACS buffer (PBS containing 2% fetal bovine serum from Corning®). Exemplified anti-human IL-4Rα antibodies and the respective control IgG antibodies conjugated to Alexa Fluor® 647 according to manufacturer's protocol (Thermo Fisher Scientific) were added to the wells at 66.67 nM and diluted 4-fold in duplicate. Equivalent volume of 2× antibody cocktail containing: Human TruStain FcX™. FITC anti-human CD3 Antibody, Alexa Fluor® 700 anti-human CD4 Antibody (all from Biolegend®) and CD20 Monoclonal Antibody (2H7), PerCP-Cyanine5.5 (Thermo Fisher Scientific) was then added to the wells. Cells were incubated at 4° C. for 30 minutes, washed twice with FACS buffer and resuspended in a final volume of 100 μL FACS buffer. Viability dye, Sytox™ blue (Thermo Fisher Scientific), was added and the samples were analyzed via a flow cytometer (LSRFortessa™ X-20; BD BIOSCIENCES). Data analysis was performed using FlowJo software and statistical analysis was performed using GraphPad Prism 9. […]

B1: anti-human IL-4Rα antibody Ab9 (antibody, human IgG4 S228P, kappa, V domains shown)
VH: QVQLVESGGGLVQPGGSLRLSCAASGFTFSHSSMNWVRQAPGKGLEWVSYISRATGAVYYADSVKGRFTISRDNAKNSLYLQMNSLRDEDTAVYYCAREPVFDYWGQGTLVTVSS
VL: DIQMTQSPSAMSASVGDRVTITCRASQGISNYLAWFQQKPGKVPTRLIYAASSLQSGVPSRFSGSGSGTEFTLTISSLQPEDFATYYCLQWSSYPRTFGQGTKVEIKR
Turning to B1, in test [1], the “IL-4 IC50 (nM): inhibition of IL-4 induced SEAP activity in HEK-Blue IL-4R and IL-13R expressing cells” value is 0.03 nM; the “IL-13 IC50 (nM): inhibition of IL-13 induced SEAP activity in HEK-Blue IL-4R and IL-13R expressing cells” value worked out at 0.24 nM.

B2: anti-human IL-4Rα antibody Ab10 (antibody, human IgG4 S228P, kappa, F234A L235A, V domains shown)
VH: QVQLVESGGGLVQPGGSLRLSCAASGFTFSISSMNWVRQAPGKGLEWVSYISRATGAIYYADSVKGRFTISRNNAKNSLYLQMNSLRDEDTAVYYCAREPVFDYWGQGTLVTVSS
VL: DIQMTQSPSAMSASVGDRVTITCRASQGISNYLAWFQQKPGKVPTRLIYAASSLQSGVPSRFSGSGSGTEFTLTISSLQPEDFATYYCLQHNSYPRTFGQGTKVEIKR
For the molecule B2, in test [1], the “IL-4 IC50 (nM): inhibition of IL-4 induced SEAP activity in HEK-Blue IL-4R and IL-13R expressing cells” value is 3.45 nM; the “IL-13 IC50 (nM): inhibition of IL-13 induced SEAP activity in HEK-Blue IL-4R and IL-13R expressing cells” value is greater than 35 nM.

B3: Ab9 Fab (hexahistidine tagged IgG1 heavy chain truncated after CH1, Crystal Kappa light chain) (Fab, V domains shown)
VH: QVQLVESGGGLVQPGGSLRLSCAASGFTFSHSSMNWVRQAPGKGLEWVSYISRATGAVYYADSVKGRFTISRDNAKNSLYLQMNSLRDEDTAVYYCAREPVFDYWGQGTLVTVSS
VL: DIQMTQSPSAMSASVGDRVTITCRASQGISNYLAWFQQKPGKVPTRLIYAASSLQSGVPSRFSGSGSGTEFTLTISSLQPEDFATYYCLQWSSYPRTFGQGTKVEIK
notes: Construct for co-crystallisation; also called Fab portion of Ab9; Ab9 variant
On to B3, for which the binding result in test [2] is “binds”.

B4: Ab1 Fab (Crystal Kappa design) (Fab, V domains shown)
VH: QVQLVESGGGLVQPGGSLRLSCVASGFTFSHSSMNWVRQAPGKGLEWVSYISRATGAVYYADSVKGRFTISRDNAKNSLYLQMNSLRDEDTAVYYCAREPVFDYWGQGTLVTVSS
VL: DIQMTQSPSAMSASVGDRVTITCRASQDISNYLAWFQQKPGKVPTRLIYAASSLQSGVPSRFSGSGSGTEFTLTISSLQPEDFATYYCLQWSSYPRTFGQGTKVEIK
notes: Construct for co-crystallisation; also called Fab of the Ab1; anti-human IL-4Rα Ab1 Fab
As for B4, in test [2], the binding result is listed as “binds”.

B5: anti-human IL-4Rα antibody Ab4 (antibody, human IgG4 S228P, kappa)
heavy: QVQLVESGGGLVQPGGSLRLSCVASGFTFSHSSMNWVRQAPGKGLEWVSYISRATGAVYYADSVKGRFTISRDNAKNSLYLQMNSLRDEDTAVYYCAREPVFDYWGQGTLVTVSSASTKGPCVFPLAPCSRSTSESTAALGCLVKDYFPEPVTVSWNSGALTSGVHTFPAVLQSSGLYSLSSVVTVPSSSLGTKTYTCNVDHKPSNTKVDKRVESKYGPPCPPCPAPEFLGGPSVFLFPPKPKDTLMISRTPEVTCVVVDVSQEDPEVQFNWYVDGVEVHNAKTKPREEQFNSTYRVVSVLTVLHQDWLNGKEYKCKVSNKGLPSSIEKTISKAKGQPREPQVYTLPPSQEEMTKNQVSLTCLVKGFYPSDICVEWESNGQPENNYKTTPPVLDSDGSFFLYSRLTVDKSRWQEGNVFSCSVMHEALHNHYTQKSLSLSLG
light: DIQMTQSPSAMSASVGDRVTITCRASQDISNYLAWFQQKPGKVPTRLIYAASSLQSGVPSRFSGSGSGTEFTLTISSLQPEDFATYYCLQWSSYPRTFGQGTKVEIKRTVAAPSVFIFPPSDEQLKSGTASVVCLLNNFYPREAKVQWKVDNALQSGNSQESVTEQDSKDSTYSLSSTLTLSKADYEKHKVYACEVTHQGLSSPVTKSFNRGEC
B5: the Kd in test [3] was determined as 0.0315 nM; in test [4], 0.0246 nM.

B6: effector null anti-human IL-4Rα antibody Ab8 (antibody, human IgG1, kappa, L234A L235A)
heavy: QVQLVESGGGLVQPGGSLRLSCVASGFTFSHSSMNWVRQAPGKGLEWVSYISRATGAVYYADSVKGRFTISRDNAKNSLYLQMNSLRDEDTAVYYCAREPVFDYWGQGTLVTVSSASTKGPCVFPLAPSSKSTSGGTAALGCLVKDYFPEPVTVSWNSGALTSGVHTFPAVLQSSGLYSLSSVVTVPSSSLGTQTYICNVNHKPSNTKVDKRVEPKSCDKTHTCPPCPAPEAAGGPSVFLFPPKPKDTLMISRTPEVTCVVVDVSHEDPEVKFNWYVDGVEVHNAKTKPREEQYNSTYRVVSVLTVLHQDWLNGKEYKCKVSNKALAAPIEKTISKAKGQPREPQVYTLPPSREEMTKNQVSLTCLVKGFYPSDICVEWESNGQPENNYKTTPPVLDSDGSFFLYSKLTVDKSRWQQGNVFSCSVMHEALHNHYTQKSLSLSPGK
light: DIQMTQSPSAMSASVGDRVTITCRASQDISNYLAWFQQKPGKVPTRLIYAASSLQSGVPSRFSGSGSGTEFTLTISSLQPEDFATYYCLQWSSYPRTFGQGTKVEIKRTVAAPSVFIFPPSDEQLKSGTASVVCLLNNFYPREAKVQWKVDNALQSGNSQESVTEQDSKDSTYSLSSTLTLSKADYEKHKVYACEVTHQGLSSPVTKSFNRGEC
notes: Effector null backbone
The molecule B6 displayed an EC50 in test [5] of 1.07 nM.

The values above are taken from patent US20240100176A1 (Eli Lilly, published 2024).
